Test results published in patent US9201073B2, “Methods and compositions for enhancing proteasome activity” (President and Fellows of Harvard College, priority 2007, dated 2015).

T1: proteasome (Saccharomyces cerevisiae, UniProt P43593)
T1 sequence (P43593 1-499): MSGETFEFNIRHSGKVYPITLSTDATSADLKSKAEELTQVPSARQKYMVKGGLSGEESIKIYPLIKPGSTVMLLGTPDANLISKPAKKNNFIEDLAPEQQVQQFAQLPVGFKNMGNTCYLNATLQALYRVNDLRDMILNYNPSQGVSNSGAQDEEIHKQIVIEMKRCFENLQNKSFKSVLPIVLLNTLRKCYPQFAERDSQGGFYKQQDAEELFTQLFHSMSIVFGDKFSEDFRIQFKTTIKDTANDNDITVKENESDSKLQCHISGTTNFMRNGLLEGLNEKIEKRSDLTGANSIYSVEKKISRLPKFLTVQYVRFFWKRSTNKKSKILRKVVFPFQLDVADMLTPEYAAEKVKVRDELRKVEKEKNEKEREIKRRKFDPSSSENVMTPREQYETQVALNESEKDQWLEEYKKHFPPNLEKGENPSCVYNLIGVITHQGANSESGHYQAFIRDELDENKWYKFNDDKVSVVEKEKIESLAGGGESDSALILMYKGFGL

B1: Ubp6: yeast proteasomal deubiquitinating enzyme, endogenous proteasome inhibitor; purified recombinant protein (protein)
chain: T1 sequence (P43593 1-499)
B2: GST-Ubp6: GST fusion of Ubp6 on resin (protein)
chain: T1 sequence (P43593 1-499)
modifications: left off: a dimerising Fc or GST
notes: GST fusion of Ubp6 on resin

Key:
ubp6Δ proteasomes [1] = target: T2, ubp6Δ proteasomes (Saccharomyces cerevisiae, UniProt P30656+P43588); test: In vitro ub-cyclin B deubiquitination/degradation assay with purified yeast proteasomes; type: biochemical; details: ubp6Δ proteasomes 135 nM; recombinant Ubp6 or Usp14 species 540 nM, Ubl and Ubl-MBP 1.35 μM, preincubated 5 min; immunoblot
T2 construct: proteasomes purified from ubp6Δ mutants; TEV-ProA (TEV site + protein A), chromosomally integrated (C); made in house
Protocol: Proteasomes (135 nM) were incubated with ub-cyclin Bin the presence of 1 mM ATP and buffer (50 mM Tris [pH 7.51, 1 mM EDTA, 5 mM MgCl2) for the indicated times. Reactions were terminated by the addition of 5×SDS Laemmli loading buffer (Leggett, et al. (2002). Multiple associated proteins regulate proteasome structure and function. Mol. Cell. 10, 495-507) and boiled for 5 min. Where indicated, recombinant, purified Ubp6 or Usp14 species (540 nM) were preincubated with proteasomes for 5 min prior to the reaction. […] Unless otherwise noted, immunoblots were visualized with anti-cyclin B1 polyclonal antibodies. Polyclonal antibodies recognizing Ubp6, Rpn5, Rpn12, and ubiquitin were used as indicated. Ub-cyclin B was added in molar excess over proteasome, generally on the order of 25-fold, except for FIGS. 4C, 6A and 6B, where the substrate:enzyme ratio was increased by a factor of five.
In the experiments of FIGS. 1, 4 (except FIG. 4C), and 6C, time points were sampled after the preparation of a single reaction mixture. The zero time points therefore reflect a lag which represents the amount of time required to sample the first time point after having prepared the reaction mixture. […] In the experiments of FIGS. 2, 4C, and 6 (except 6C), each time point was carried out as an independent reaction. The zero time points were prepared in the presence of 5×LLB, and accordingly, no processing could occur before time zero.
Ubiquitination of cyclin B was carried out. Briefly, for each 30 μl reaction, Anaphase Promoting Complex (APC) was immunopurified from 600 μl of mitotic Xenopus egg extract with 12 μg of anti-Cdc27 antibodies (AF3.1, Santa Cruz Biotechnologies, Santa Cruz, Calif.) bound to 30 μl of Affiprep Protein A beads (Bio-Rad, Hercules, Calif.). Beads were washed three times with XB high salt (10 mM potassium HEPES pH 7.7, 500 mM KCl, 0.1 mM CaCl2, 1 mM MgCl2), two times with XB (same but with 100 mM KCl), and then three times into the reaction buffer (20 mM Tris pH 7.5, 100 mM KCl, 2.5 mM MgCl2, 2 mM ATP). Ubiquitination reactions contained immunoprecipitated APC on 30 μl of beads, and 30 μl of a mix containing recombinant MBP-human E1 at 200 μg/ml, histidine-tagged Ubc4 at 66 μg/ml, ubiquitin at 1.25 mg/ml, and 50 μg/ml of histidine-tagged cyclin B1/cdc2 complex expressed in baculovirus. Reactions were incubated for 90 minutes at 22° C. with agitation on a shaker at 1,000 RPM. Reaction supernatants were combined with the eluate from the wash of beads with 20 μl of reaction buffer. Reactions were either used fresh after preparation or frozen at −80° C. until use with purified proteasomes.

26S human proteasomes = target: T3, 26S human proteasomes (Homo sapiens, UniProt O00487); test: In vitro Ubn-cyclin B1 degradation assay with human proteasomes; type: biochemical; details: 4 nM human proteasomes, about 30 nM ubiquitinated cyclin B, Usp14 60 nM preincubated 5 min
T3 construct: HTBH (C); made in house; complex purified from it
Protocol: A stable 293 cell line expressing hRpn11-HTBH was used. Human proteasomes were purified as previously described with some modifications (Wang X and Huang L (2007) Identifying dynamic interactors of protein complexes by quantitative mass spectrometry. Mol Cell Proteomics. 2008 January; 7(1):46-57. Epub 2007 Oct. 12.
Assays were performed in proteasome preparation buffer (50 mM Tris [pH 7.5], 5 mM MgCl2, and 5 mM ATP) at ambient temperature for the indicated times. The 26S human proteasomes (4 nM) were incubated with approximately 30 nM of Ub-conjugated cyclin B1 as substrates. Cyclin was ubiquitinated using purified APC ubiquitin ligase. Where indicated, a 15-fold molar access of recombinant Usp14 over proteasomes were preincubated prior to adding Ubn-cyclin B1.
In the study shown in FIG. 14, 4 nM of human proteasomes were incubated with approximately 30 nM of ubiquitinated cyclin B in buffer (50 mM Tris [pH 7.5], 5 mM MgCl2, and 5 mM ATP). Where indicated, 15-fold molar access of Usp14 over proteasome (60 nM) was preincubated for 5 min before initiating degradation reactions. Ubiquitinated cyclin B was added at time zero. SDS-sample buffer was added to stop the reaction at the indicated time. Usp14 CA is a variant of Usp14 with a single amino acid substitution that eliminates the active site nucleophile of the enzyme (a cysteine to alanine replacement). […]

ubp6Δ proteasomes [2] = target: T2, ubp6Δ proteasomes; test: Quantitation of proteasome inhibition by quantitative mass spectrometry of cyclin B; type: biochemical, yeast; details: 20-minute incubation
Protocol: A standard substrate degradation assay was carried out, and analyzed in parallel by SDS-PAGE followed by Coomassie blue staining and immunoblot with anti-cyclin B antibody. Immunoblots were used to identify and excise the cyclin B-containing regions of the Coomassie-stained gel, and the lanes were analyzed by mass spectrometry.
To quantify the extent of proteasome inhibition by Ubp6, a method of quantitative mass spectrometry was utilized. After a 20-minute incubation, approximately half of the total cyclin B was degraded by ubp6Δ proteasomes (FIG. 4C).

[3] = target: T4, RP purified from a ubp6Δ mutant (Saccharomyces cerevisiae, UniProt P43588); test: Processing of ub-cyclin B by regulatory particle (RP); type: biochemical, yeast; details: RP 135 nM, four-fold molar excess of Ubp6 species
T4 construct: TEV-ProA (TEV site + protein A), chromosomally integrated (C); made in house
Protocol: FIGS. 6A and 6B depict the processing of ub-cyclin B by RP (ubp6Δ) in the presence or absence of purified Ubp6. Reactions were visualized by immunoblotting with anti-cyclin B antibody or anti-ubiquitin antibody, as indicated.
FIG. 12 is an illustration depicting the RP-mediated disassembly of Ub-cyclin B conjugates by Ubp6. Proteasome regulatory particle (135 nM) purified from a ubp6Δ strain was combined with a four-fold molar excess of Ubp6, Ubp6-ublΔ, or Ubp6-C118A, and Ub-Cyclin B, and incubated for the indicated times. Reactions were visualized by immunoblot with anti-ubiquitin antibody. *represents a non-ubiquitin immunoreactive band.
A previously described procedure for purification of the proteasome (Leggett, et al. (2002). Multiple associated proteins regulate proteasome structure and function. Mol. Cell. 10, 495-507) was modified by adding 1 mM ATP and 5 mM MgCl2 to all purification buffers, and by washing resins with 100 bed vol. of buffer containing 50 mM NaCl, as opposed to 50 bed vol. of buffer containing 100 mM NaCl. RP was purified in the presence of ATP and MgCl2 as described (Leggett et al., 2002).
Proteasomes (135 nM) were incubated with ub-cyclin Bin the presence of 1 mM ATP and buffer (50 mM Tris [pH 7.51, 1 mM EDTA, 5 mM MgCl2) for the indicated times. […]

proteasome = target: T1, proteasome; details: cited from earlier work
ubiquitin ethyl ester = details: cited from earlier work
Ub-cyclin B = target: T5, Ub-cyclin B (Homo sapiens, UniProt P14635); test: Ub-cyclin B binding assay (GST pull down); details: GST resin pull down, immunoblot
T5 construct: histidine tag; made in house; host or cells: cyclin B1/cdc2: baculovirus expression; GST-Ubp6: pGEX-4T-1 (bacterial)
T5 sequence (P14635 whole entry, other chains not shown): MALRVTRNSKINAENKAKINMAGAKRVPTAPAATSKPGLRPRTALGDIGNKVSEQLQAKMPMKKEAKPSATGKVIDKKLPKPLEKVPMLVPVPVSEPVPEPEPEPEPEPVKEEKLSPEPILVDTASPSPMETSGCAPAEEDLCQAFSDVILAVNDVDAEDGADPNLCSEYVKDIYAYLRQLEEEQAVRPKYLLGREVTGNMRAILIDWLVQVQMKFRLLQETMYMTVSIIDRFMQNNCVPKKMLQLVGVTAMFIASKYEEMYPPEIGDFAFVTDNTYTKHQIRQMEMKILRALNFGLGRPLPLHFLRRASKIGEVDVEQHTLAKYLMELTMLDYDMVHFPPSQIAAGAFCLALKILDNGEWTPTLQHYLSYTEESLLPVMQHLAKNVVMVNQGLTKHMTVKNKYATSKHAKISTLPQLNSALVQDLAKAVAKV
T5 sequence (P06493 whole entry partner, other chains not shown): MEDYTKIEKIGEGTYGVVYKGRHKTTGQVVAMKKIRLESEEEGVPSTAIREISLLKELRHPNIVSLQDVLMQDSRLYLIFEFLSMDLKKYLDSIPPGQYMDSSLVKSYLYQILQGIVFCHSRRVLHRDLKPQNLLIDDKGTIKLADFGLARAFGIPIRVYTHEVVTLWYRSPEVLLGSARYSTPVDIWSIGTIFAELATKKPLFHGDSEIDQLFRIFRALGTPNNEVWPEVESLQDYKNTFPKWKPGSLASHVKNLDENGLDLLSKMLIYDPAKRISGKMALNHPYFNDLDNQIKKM

Molecule	inhibition of cyclin B degradation (ubp6Δ proteasomes [1])	suppression of cyclin B degradation by human proteasomes (26S human proteasomes)	inhibition of degradation (cyclin B) (ubp6Δ proteasomes [2])	processing of ub-cyclin B conjugates by RP [3]	activation of Ubp6's catalytic activity on binding to the proteasome (proteasome)	KM of Ubp6 for ubiquitin ethyl ester (ubiquitin ethyl ester)	binding of Ub-cyclin B conjugates (Ub-cyclin B)
Usp14: human homolog of Ubp6, purified recombinant deubiquitinating enzyme	largely recapitulated the effects of Ubp6	suppression of cyclin B degradation					
B1	marked inhibition of cyclin B degradation		approximately 70%	chain shortening	over 300 fold	so high as to be unmeasurable	
B2							No detectable binding
